Measured values reported in the Human Domainome abundance scans (Beltran et al. 2025).
± gives the uncertainty stated by the source.

B1: Chromodomain-helicase-DNA-binding protein 7, residues 2564 to 2605; numbered along this chain, Q9P2D1 (parent)
chain: DPDTRIPVINLEDGTRLVGEDAPKNKDLVEWLKLHPTYTVDM

Variants of: B1
Test: abundance fitness (aPCA) (normalised: wild type 0, dead -1); higher = more abundant; growth selection in yeast, the domain comes from the species named
Conditions: Homo sapiens
With D41K the abundance fitness was -1.14 ± 0.35. D41V gave an abundance fitness of -0.793 ± 0.055. With D41R the abundance fitness was -0.841 ± 0.058. For D41L, the abundance fitness was -0.594 ± 0.053. D41I showed an abundance fitness of -0.871 ± 0.097. With D41G the abundance fitness was -0.335 ± 0.051. D41P gave an abundance fitness of -0.453 ± 0.12. With D41T the abundance fitness was -0.586 ± 0.063. In the case of D41H, the abundance fitness is reported as -0.364 ± 0.092. Variant D41N has an abundance fitness of -0.343 ± 0.058. With D41W the abundance fitness was -0.84 ± 0.2. Variant D41S has an abundance fitness of -0.438 ± 0.057. Variant D41Q has an abundance fitness of -0.422 ± 0.48. D41E showed an abundance fitness of -0.179 ± 0.079. For D41M, the abundance fitness was -0.531 ± 0.072. M42T gave an abundance fitness of 0.142 ± 0.083. M42F gave an abundance fitness of -0.244 ± 0.087. M42K gave an abundance fitness of -0.528 ± 0.36. M42H gave an abundance fitness of -0.04 ± 0.27. M42Y showed an abundance fitness of -0.027 ± 0.069. Variant M42Q has an abundance fitness of 0.108 ± 0.12. With M42G the abundance fitness was -0.096 ± 0.15. Work on M42N yielded an abundance fitness of 0.025 ± 0.059. M42R showed an abundance fitness of -0.092 ± 0.3. Work on M42A yielded an abundance fitness of 0.132 ± 0.081. Work on M42V yielded an abundance fitness of -0.065 ± 0.061. M42P showed an abundance fitness of -0.569 ± 0.3. In the case of M42S, the abundance fitness is reported as 0.111 ± 0.06. M42I showed an abundance fitness of -0.189 ± 0.097. M42L gave an abundance fitness of -0.172 ± 0.07. With M42W the abundance fitness was -0.438 ± 0.26.
